# Assay results published in patent publication US20140030216.
# T1: recombinant rhIFNAR1 (≈110 kD), P17181
# T1 chain: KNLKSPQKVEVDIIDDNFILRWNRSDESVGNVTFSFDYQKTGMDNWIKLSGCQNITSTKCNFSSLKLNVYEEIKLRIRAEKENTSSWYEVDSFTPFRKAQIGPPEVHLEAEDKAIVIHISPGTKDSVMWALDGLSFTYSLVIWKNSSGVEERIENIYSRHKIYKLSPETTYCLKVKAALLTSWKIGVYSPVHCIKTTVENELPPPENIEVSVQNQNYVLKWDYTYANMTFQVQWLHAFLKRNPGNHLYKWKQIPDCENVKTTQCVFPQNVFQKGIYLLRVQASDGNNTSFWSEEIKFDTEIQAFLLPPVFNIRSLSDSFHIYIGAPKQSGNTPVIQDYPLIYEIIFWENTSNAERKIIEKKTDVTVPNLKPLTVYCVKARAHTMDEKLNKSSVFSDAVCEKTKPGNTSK
# Assays:
# [1] = target: T1, recombinant rhIFNAR1 (≈110 kD), P17181
# rhMCP-3, P80098, sequence (P80098 24-99): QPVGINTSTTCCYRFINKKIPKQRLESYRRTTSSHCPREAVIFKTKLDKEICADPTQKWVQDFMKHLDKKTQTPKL
protein,measurement,setting,value
Purified human MMP-2 (mixture of the proenzyme (50%) and the active form (50%)) (protein) YNFFPRKPKWDKNQITYRIIGYTPDLDPETVDDAFARAFQVWSDVTPLRFSRIHDGEADIMINFGRWEHGDGYPFDGKDGLLAHAFAPGTGVGGDSHFDDDELWTLGEGQVVRVKYGNADGEYCKFPFLFNGKEYNSCTDTGRSDGFLWCSTTYNFEKDGKYGFCPHEALFTMGGNAEGQPCKFPFRFQGTSYDSCTTEGRTDGYRWCGTTEDYDRDKKYGFCPETAMSTVGGNSEGAPCVFPFTFLGNKYESCTSAGRSDGKMWCATTANYDDDRKWGFCPDQGYSLFLVAAHEFGHAMGLEHSQDPGALMAPIYTYTKNFRLSQDDIKGIQELYGASPDIDLGTGPTPTLGPVTPEICKQDIVFDGIAQIRGEIFFFKDRFIWRTVTPRDKPMGPLLVATFWPELPEKIDAVYEAPQEEKAVFFAGNEYWIYSASTLERGYPKPLTSLGLPPDVQRVDAAFNWSKNKKTYIFAGDKFWRYNEVKKKMDPGFPKLIADAWNAIPDNLDAVVDLQGGGHSYFFKGAYYLKLENQSLKSVKFGSIKSDWLGC,MCP-3 degradation (MCP-3 content by ELISA after overnight incubation),"rhMCP-3, P80098",MMP-2 activity was controlled by measuring its capacity to degrade MCP-3
same,degradation of rhIFNAR1 after overnight incubation with MMP-2 (Western blot),[1],recombinant rhIFNAR1 (≈110 kD) incubated overnight with active MMP-2 was degraded by MMP-2
